Data: PMC2881153
Like-named read-outs stand apart in the source and are kept apart here.

Legend:
[1] = target: T1, Fl-Imp3p;Rh-Imp4p (Saccharomyces cerevisiae;Saccharomyces …, UniProt P32899;P53941 1-183;1-290, |); assay: ssFRET
T1 sequence 1: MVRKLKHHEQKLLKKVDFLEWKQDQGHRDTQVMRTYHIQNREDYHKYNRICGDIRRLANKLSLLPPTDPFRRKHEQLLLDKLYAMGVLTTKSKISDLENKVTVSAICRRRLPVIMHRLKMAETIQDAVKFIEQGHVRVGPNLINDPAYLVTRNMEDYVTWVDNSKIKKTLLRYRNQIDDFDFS
T1 sequence 2: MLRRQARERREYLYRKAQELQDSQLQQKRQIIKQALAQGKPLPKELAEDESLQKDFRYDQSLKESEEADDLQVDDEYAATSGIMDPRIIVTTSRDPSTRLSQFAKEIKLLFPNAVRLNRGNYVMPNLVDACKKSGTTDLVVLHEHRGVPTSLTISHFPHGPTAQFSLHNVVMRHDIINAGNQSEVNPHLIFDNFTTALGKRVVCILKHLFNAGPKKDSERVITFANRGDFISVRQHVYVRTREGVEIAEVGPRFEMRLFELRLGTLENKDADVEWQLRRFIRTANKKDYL

[2] = target: T2, Imp3p;Imp4p (Saccharomyces cerevisiae;Saccharomyces …, UniProt P32899;P53941 1-183;1-290, |); assay: trFRET
T2 sequence 1: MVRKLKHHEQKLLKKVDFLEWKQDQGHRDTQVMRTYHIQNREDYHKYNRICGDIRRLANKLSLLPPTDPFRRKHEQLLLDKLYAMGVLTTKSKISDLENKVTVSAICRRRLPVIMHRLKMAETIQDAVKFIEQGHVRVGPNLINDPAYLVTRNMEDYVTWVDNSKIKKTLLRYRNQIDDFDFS
T2 sequence 2: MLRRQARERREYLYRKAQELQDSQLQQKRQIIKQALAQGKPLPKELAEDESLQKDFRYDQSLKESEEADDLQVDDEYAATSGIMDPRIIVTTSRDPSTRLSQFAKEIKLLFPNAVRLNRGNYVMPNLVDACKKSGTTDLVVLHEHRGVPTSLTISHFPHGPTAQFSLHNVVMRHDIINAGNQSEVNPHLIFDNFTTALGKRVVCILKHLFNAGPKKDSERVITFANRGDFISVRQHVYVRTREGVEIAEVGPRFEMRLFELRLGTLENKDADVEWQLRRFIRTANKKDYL

[3] = target: T3, Imp3p (Saccharomyces cerevisiae, UniProt P32899 1-183); assay: trFRET
T3 sequence: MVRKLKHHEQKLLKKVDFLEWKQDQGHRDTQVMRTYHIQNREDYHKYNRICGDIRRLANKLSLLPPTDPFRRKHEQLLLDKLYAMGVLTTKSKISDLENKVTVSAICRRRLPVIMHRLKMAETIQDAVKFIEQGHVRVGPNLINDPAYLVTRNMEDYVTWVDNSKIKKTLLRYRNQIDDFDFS

[4] = target: T2, Imp3p;Imp4p; assay: trFRET; remark: listed apart in the source

B1: U3 MINI (structured_RNA)
RNA: GGACGUACUUCAUAGGAUCAUUUCUAUAGGAAUCGUCACUCUUUGACU
Question: Does B1 bind [1]?
Answer: Result: binds

B2: Fl-U3 MINI-Rh with 18S (dsRNA)
RNA 1: GGACGUACUUCAUAGGAUCAUUUCUAUAGGAAUCGUCACUCUUUGACU
RNA 2: GGUUGAUCCUGCCAGUA
Question: Does B2 bind [2]?
Answer: Result: binds

B3: Fl-U3 MINI-Rh (structured_RNA)
RNA: GGACGUACUUCAUAGGAUCAUUUCUAUAGGAAUCGUCACUCUUUGACU
Question: Does B3 bind [3]?
Answer: Result: binds

Question: Does B3 bind [4]?
Answer: Result: binds
